Laboratory results: article PMC2116221

Target: taxol-stabilized microtubules (bovine brain tubulin) (bovine) (UniProt Q6B856)
Test: co-sedimentation

UniProt Q6B856, sequence (Q6B856 whole entry, looked up): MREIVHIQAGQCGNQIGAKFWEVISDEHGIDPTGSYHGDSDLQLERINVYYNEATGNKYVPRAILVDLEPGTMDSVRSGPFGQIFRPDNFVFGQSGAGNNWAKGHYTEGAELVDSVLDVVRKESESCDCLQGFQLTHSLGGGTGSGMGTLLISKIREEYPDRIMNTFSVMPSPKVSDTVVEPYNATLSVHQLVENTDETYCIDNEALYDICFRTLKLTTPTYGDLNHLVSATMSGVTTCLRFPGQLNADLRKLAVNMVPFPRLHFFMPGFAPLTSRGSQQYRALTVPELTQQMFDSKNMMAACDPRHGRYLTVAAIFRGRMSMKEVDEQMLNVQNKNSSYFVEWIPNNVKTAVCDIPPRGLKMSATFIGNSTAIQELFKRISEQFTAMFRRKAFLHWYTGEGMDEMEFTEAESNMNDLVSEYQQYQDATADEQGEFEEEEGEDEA

Row | percent extracted from microtubules by 0.5 M NaCl [%] | Substance
1 | 60 | CHO1 antigen, polypeptide of ~100 kD (HeLa cytoplasm) (from UniProt Q02241-2 1-856) (natural protein)
2 | 60 | CHO1 antigen, polypeptide of ~115 kD (HeLa cytoplasm) (from UniProt Q02241 1-960) (natural protein)
